Measurements taken from the supplement of paper PMC9112550, “Optimization of the antimicrobial peptide Bac7 by deep mutational scanning” (BMC Biology, 2022).

System: Escherichia coli TOP10
Assay: shrunken log2 fold change of peptide-encoding DNA abundance (4.5 h post-induction vs induction); higher = less antimicrobial activity (less host growth inhibition)
Details: time post-induction: 4.5 h; library: site-saturation at positions 5, 18, 19, 20
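Further: peptides expressed intracellularly from a pBAD plasmid library in pooled LB shake-flask culture, induced with 0.3% L-arabinose, DNA abundance read by NGS, three biological replicates, DESeq2 with apeglm shrinkage.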

Sequence	shrunken log2 fold change
RRIRARPPRLPRPRPRPTLVPRP	0.562
RRIRIRPPRLPRPRPRPYVLPRP	-0.588
RRIRGRPPRLPRPRPRPWFRPRP	-0.0346
RRIRVRPPRLPRPRPRPRTLPRP	-0.222
RRIRCRPPRLPRPRPRPVADPRP	0.181
RRIRDRPPRLPRPRPRPQMKPRP	-0.166
RRIRCRPPRLPRPRPRPCSSPRP	0.0866
RRIRPRPPRLPRPRPRPHHEPRP	-0.066
RRIRIRPPRLPRPRPRPQTAPRP	0.101
RRIRLRPPRLPRPRPRPWVHPRP	-0.3
RRIRGRPPRLPRPRPRPRWCPRP	0.351
RRIRIRPPRLPRPRPRPMKAPRP	-1.03
RRIRVRPPRLPRPRPRPYYSPRP	-0.235
RRIRTRPPRLPRPRPRPWMSPRP	0.00487
RRIRNRPPRLPRPRPRPRDWPRP	0.0384
RRIRTRPPRLPRPRPRPTAIPRP	0.0593
RRIRERPPRLPRPRPRPDLRPRP	-0.076
RRIRPRPPRLPRPRPRPTGNPRP	0.141
RRIRGRPPRLPRPRPRPMTWPRP	0.17
RRIRKRPPRLPRPRPRPHVPPRP	0.207
RRIRGRPPRLPRPRPRPFRDPRP	0.0814
RRIRMRPPRLPRPRPRPYISPRP	-0.353
RRIRWRPPRLPRPRPRPTMEPRP	0.00667
RRIRTRPPRLPRPRPRPNMPPRP	-0.0405
RRIRRRPPRLPRPRPRPYWLPRP	-0.578

Sequence	shrunken log2 fold change
RRIRRRPPRLPRPRPRPILTPRP	0.447
RRIRHRPPRLPRPRPRPVRNPRP	0.0796
RRIRDRPPRLPRPRPRPHLYPRP	0.0039
RRIRFRPPRLPRPRPRPLTHPRP	-0.0881
RRIRWRPPRLPRPRPRPAQDPRP	0.415
RRIRRRPPRLPRPRPRPSITPRP	-0.225
RRIRYRPPRLPRPRPRPYWQPRP	-0.000687
RRIRERPPRLPRPRPRPDQVPRP	-0.148
RRIRGRPPRLPRPRPRPIQYPRP	-0.0751
RRIRCRPPRLPRPRPRPMRPPRP	0.214
RRIRVRPPRLPRPRPRPYPKPRP	-0.858
RRIRTRPPRLPRPRPRPQPIPRP	0.0337
RRIRDRPPRLPRPRPRPVHRPRP	0.0594
RRIRCRPPRLPRPRPRPCTRPRP	-0.321
RRIRYRPPRLPRPRPRPHQNPRP	-0.527
RRIRDRPPRLPRPRPRPNHVPRP	-0.242
RRIRCRPPRLPRPRPRPQNMPRP	-0.78
RRIRDRPPRLPRPRPRPNHNPRP	-0.539
RRIRGRPPRLPRPRPRPASGPRP	0.625
RRIRQRPPRLPRPRPRPHPCPRP	-0.0985
RRIRCRPPRLPRPRPRPVESPRP	-0.0217
RRIRRRPPRLPRPRPRPVPLPRP	0.385
RRIRQRPPRLPRPRPRPGVSPRP	-0.0696
RRIRFRPPRLPRPRPRPSMMPRP	-0.941
RRIRWRPPRLPRPRPRPPYGPRP	-0.0783

Sequence	shrunken log2 fold change
RRIRKRPPRLPRPRPRPRWQPRP	0.189
RRIRRRPPRLPRPRPRPLPDPRP	0.112
RRIRHRPPRLPRPRPRPVMNPRP	-0.0175
RRIRMRPPRLPRPRPRPEFNPRP	0.301
RRIRYRPPRLPRPRPRPCPVPRP	-0.143
RRIRRRPPRLPRPRPRPGYVPRP	0.183
RRIRIRPPRLPRPRPRPPYGPRP	-0.202
RRIRFRPPRLPRPRPRPRYYPRP	-0.617
RRIRTRPPRLPRPRPRPYTRPRP	-0.0177
RRIRPRPPRLPRPRPRPYSDPRP	-0.713
RRIRWRPPRLPRPRPRPMYPPRP	-0.245
RRIRNRPPRLPRPRPRPHMWPRP	-0.0758
RRIRFRPPRLPRPRPRPKNGPRP	-0.0366
RRIRMRPPRLPRPRPRPSLGPRP	0.193
RRIRIRPPRLPRPRPRPLMLPRP	-0.704
RRIRDRPPRLPRPRPRPDFTPRP	-0.0299
RRIRNRPPRLPRPRPRPFTCPRP	-0.215
RRIRARPPRLPRPRPRPQPGPRP	0.563
RRIRERPPRLPRPRPRPFKLPRP	-0.42
RRIRLRPPRLPRPRPRPHAGPRP	0.168
RRIRDRPPRLPRPRPRPALHPRP	0.438
RRIRFRPPRLPRPRPRPKHWPRP	0.0787
RRIRERPPRLPRPRPRPPGEPRP	0.439
RRIRTRPPRLPRPRPRPEIGPRP	-0.103
RRIRCRPPRLPRPRPRPNSFPRP	-0.58

Sequence	shrunken log2 fold change
RRIRNRPPRLPRPRPRPSIHPRP	-0.185
RRIRYRPPRLPRPRPRPVTGPRP	-0.213
RRIRWRPPRLPRPRPRPWGSPRP	0.0134
RRIRKRPPRLPRPRPRPHSKPRP	0.0726
RRIRSRPPRLPRPRPRPMRIPRP	0.0732
RRIRQRPPRLPRPRPRPPNDPRP	0.0155
RRIRWRPPRLPRPRPRPCRKPRP	-0.0352
RRIRDRPPRLPRPRPRPPQHPRP	0.171
RRIRSRPPRLPRPRPRPVYCPRP	-0.138
RRIRMRPPRLPRPRPRPWHHPRP	-0.0514
RRIRFRPPRLPRPRPRPRQMPRP	-0.0877
RRIRERPPRLPRPRPRPLSQPRP	-0.406
RRIRKRPPRLPRPRPRPTCYPRP	0.0572
RRIRVRPPRLPRPRPRPCESPRP	-0.374
RRIRKRPPRLPRPRPRPNKLPRP	-0.0293
RRIRARPPRLPRPRPRPEDYPRP	-0.0332
RRIRIRPPRLPRPRPRPKTGPRP	-0.388
RRIRLRPPRLPRPRPRPKWWPRP	0.396
RRIRQRPPRLPRPRPRPVDKPRP	-0.0881
RRIRRRPPRLPRPRPRPESSPRP	0.53
RRIRERPPRLPRPRPRPKVNPRP	-0.389
RRIRTRPPRLPRPRPRPSDEPRP	-0.516
RRIRCRPPRLPRPRPRPMPAPRP	0.849
RRIRMRPPRLPRPRPRPHQPPRP	0.0274
RRIRPRPPRLPRPRPRPRFKPRP	0.166

Sequence	shrunken log2 fold change
RRIRGRPPRLPRPRPRPNIEPRP	0.51
RRIRKRPPRLPRPRPRPQYEPRP	0.0265
RRIRRRPPRLPRPRPRPGTIPRP	-0.502
RRIRVRPPRLPRPRPRPGYWPRP	0.0156
RRIRQRPPRLPRPRPRPWAAPRP	0.0922
RRIRIRPPRLPRPRPRPLTIPRP	-0.536
RRIRIRPPRLPRPRPRPREFPRP	0.0231
RRIRFRPPRLPRPRPRPDMAPRP	-0.108
RRIRSRPPRLPRPRPRPDQQPRP	0.0193
RRIRQRPPRLPRPRPRPIHHPRP	-0.167
RRIRFRPPRLPRPRPRPPNTPRP	-0.0857
RRIRNRPPRLPRPRPRPNKPPRP	-0.122
RRIRFRPPRLPRPRPRPQVLPRP	-0.00198
RRIRGRPPRLPRPRPRPSFAPRP	0.723
RRIRKRPPRLPRPRPRPNTGPRP	0.382
RRIRPRPPRLPRPRPRPKDPPRP	0.165
RRIRKRPPRLPRPRPRPYTVPRP	-0.0362
RRIRNRPPRLPRPRPRPHWFPRP	-0.318
RRIRGRPPRLPRPRPRPAYGPRP	-0.0354
RRIRPRPPRLPRPRPRPHHTPRP	-0.617
RRIRFRPPRLPRPRPRPHTEPRP	-0.731
RRIRPRPPRLPRPRPRPNYHPRP	-0.607
RRIRQRPPRLPRPRPRPRDCPRP	0.142
RRIRHRPPRLPRPRPRPERTPRP	0.0203
RRIRNRPPRLPRPRPRPKIGPRP	-0.0153

Sequence	shrunken log2 fold change
RRIRYRPPRLPRPRPRPCSTPRP	-0.212
RRIRFRPPRLPRPRPRPVAFPRP	-0.141
RRIRSRPPRLPRPRPRPTKAPRP	0.266
RRIRNRPPRLPRPRPRPAHHPRP	-0.0626
RRIRTRPPRLPRPRPRPVNWPRP	0.0495
RRIRVRPPRLPRPRPRPINDPRP	0.0664
RRIRWRPPRLPRPRPRPHGFPRP	0.407
RRIRFRPPRLPRPRPRPCQTPRP	-0.414
RRIRERPPRLPRPRPRPNPEPRP	-0.0358
RRIRWRPPRLPRPRPRPRYNPRP	-0.396
RRIRIRPPRLPRPRPRPNKSPRP	-0.919
RRIRWRPPRLPRPRPRPIDKPRP	-0.105
RRIRTRPPRLPRPRPRPLPKPRP	-0.0549
RRIRARPPRLPRPRPRPCEPPRP	0.39
RRIRGRPPRLPRPRPRPWGYPRP	0.094
RRIRARPPRLPRPRPRPLQLPRP	0.179
RRIRKRPPRLPRPRPRPNNEPRP	0.0823
RRIRPRPPRLPRPRPRPACEPRP	0.0148
RRIRIRPPRLPRPRPRPQEVPRP	0.0526
RRIRTRPPRLPRPRPRPRAKPRP	0.346
RRIRARPPRLPRPRPRPFRLPRP	0.114
RRIRERPPRLPRPRPRPQGPPRP	0.0515
RRIRFRPPRLPRPRPRPRKWPRP	0.498
RRIRFRPPRLPRPRPRPMDTPRP	-0.165
RRIRRRPPRLPRPRPRPYPVPRP	0.0514
